According to article PMC6128652, “Structure of the Cladosporium fulvum Avr4 effector in complex with (GlcNAc)6 reveals the ligand-binding mechanism and uncouples its intrinsic function from recognition by the Cf-4 resistance protein” (PLoS Pathogens, 2018):
“Also recorded” adds a separate entry of the source.

How the values were obtained:
Cf-4 immune receptor = experiment: Pure protein infiltrations into tomato leaves of cv Purdue 135 (+ Cf-4), hypersensitive response; type: in vivo; conditions: 5 dpi
Text: Tomato seeds were obtained from the Tomato Genetic Resource Center (TGRC) at UC Davis. WT-CfAvr4 and mutants thereof with single point mutations at selected amino acids were produced and purified from E. coli Rosetta-gami B cells as description above. […]

subtilisin = experiment: Subtilisin treatment (resistance against proteolytic degradation); type: in vitro ADME; design: key to Stability (Subtilisin assay): S: stable; PU: partially unstable; conditions: for Stability (Subtilisin assay): 500 ng/μL subtilisin, 30 min, room temperature; for susceptibility to proteolytic degradation by subtilisin: 500 ng/μl subtilisin, band of mature CfAvr4 on SDS-PAGE
Description: The WT-CfAvr4 and selected mutants thereof were exposed to the non-specific protease subtilisin in order to determine their resistance against proteolytic degradation. Treatments with subtilisin were made as previously described with minor modifications. Briefly, 40 μM of the E. coli-produced CfAvr4 and the selected CfAvr4 mutants were mixed with 10 mM of calcium chloride and 500 ng/μL of subtilisin (Sigma-Aldrich) in a total volume of 15 μL. Samples were incubated for 30 min at room temperature, after which period they were denatured by mixing with 10 mM PMSF and SDS-PAGE loading buffer, and heating at 98°C for 10 min. Digestion products were visualized on an SDS-PAGE after staining with Coomassie blue.

[1] = Isothermal titration calorimetry (ITC) of CfAvr4 variants with chitin hexasaccharide; type: binding; conditions: ITC; for increase in the Kd relative to WT-CfAvr4: (GlcNAc)6
Description: A stock solution of the monomer of N-acetylglucosamine was prepared by dissolving the dry powder in a buffer containing 10 mM Bis-Tris, pH 6.5, 100 mM NaCl to a concentration of 0.100 g/L using analytic techniques. Standard solution of 0, 0.010, 0.025, 0.050, 0.075 g/L were prepared by serial dilutions. Using glass test tubes and pipets, 100 μL of each standard was mixed with 300μL of concentrated sulfuric acid and vortexed for 10 sec to mix. Solutions were incubated at RT for 10 min and then placed on ice to stop the reaction. […] Analytically prepared solution of the di- and tri-saccharide scaled linearly to the calibration curve. To determine the concentration of the chitin hexasaccharide solutions used in ITC, the solutions were diluted into the dynamic range of the calibration curve (S12 Fig) and subjected to the above procedure.
All ITC experiments were performed on a TA Instruments low volume NanoITC with a 186uL reaction cell and a reference cell filled with degassed Milli-Q grade water. Reactions were run in a buffer containing 10mM Bis-Tris, pH 6.5, 100 mM NaCl. The reservoir solution was filled with protein solution and continuously stirred while Chitin hexasaccharide solutions titrated in 2.5μL aliquots for 19 injections, with an initial 1μL injection, for a total injection volume of 48.5μL. The carbohydrate solutions were made by dissolving the dry powder in buffer to a concentration of 20mM (confirmed using methods described above) and then diluted to the working concentration using the final buffer exchange flow through to match the buffers as closely as possible. The integrated heats, after correction for the heat of dilution were analyzed using the NanoAnalyze software from […]. An individual binding site model was used to fit the binding isotherm. All experiments were replicated a minimum of three times.

[2] = tested on: germlings of Trichoderma viride; experiment: In vitro protection assay of T. viride germlings against chitinases; type: cell-based; conditions: 5 μM protein with chitinases and β-1,3-glucanases; for protection of fungal hyphae against chitinases, fungal growth: 6–8 h
Description: The ability of the WT-CfAvr4 and of ChBD mutants to protect against chitinases was evaluated in in vitro protection assays conducted as described before. Briefly, spores of T. viride (3∙10^3) were pre-germinated overnight at room temperature in 100 μl of half-strength PDB medium in 96 well plates. The following day, 5 μM of WT-CfAvr4 or ChBD mutants were mixed with 7.5 units of Zymolyase (Zymo Research cat. no. E1004) and 0.2 units of bacterial chitinases (Sigma-Aldrich cat. no. C6137) and the mixture was added to the microtitre plate wells containing the pre-germinated spores in a final volume of 150 μl. Plates were incubated at 25°C for 6–8 h before evaluating under the microscope fungal growth and the ability of the proteins to provide protection against chitinases. Zymolase has β-1,3 glucanase and β-1,3-glucan laminaripentaohydrolase activity and is added to the mixture in order to remove the surface glucans from the fungal cell wall and thus expose the underlying chitin layer.

Cf-4 = experiment: Agrobacterium tumefaciens transient transformation assay (ATTA): co-expression with Cf-4 in Nicotiana benthamiana leaves; type: in vivo; conditions: N. benthamiana, three cell density ratios 0.5:1, 1:1, 2:1
Description: The Agrobacterium tumefaciens transient transformation assay (ATTA) was used for the transient co-expression into leaves of Nicotiana benthamiana of Cf-4 with the WT-CfAvr4 and the mutants thereof tested in this study. Briefly, N. benthamiana plants were grown in a growth chamber with 16 h of artificial light and 70% humidity, at 25°C for 4 weeks. The true mature form of the WT-CfAvr4 (i.e. between Lys30-Gln115) and of the mutants thereof were singly cloned into the binary expression vector pICH47742 downstream of the PR1A signal sequence of Nicotiana tabacum for targeted secretion into the apoplast, and under the control of CaMV 35S promoter and NOS terminator. The tomato Cf-4 was cloned into pMOG800 as descripted before. Binary vector plasmids were transformed into A. tumefaciens strain GV3101 by electroporation. For the ATTA assay, agrobacteria transformed with pMOG800:Cf-4 was grown in 10mL LB-mannitol medium (LB medium with 10 g/L mannitol) amended with 50 μg/mL kanamycin and 25 μg/mL rifampicin, whereas agrobacteria transformed with pICH47742:WT-CfAvr4 or pICH4774:CfAvr4-mutants were grown in LB-mannitol amended with 100 μg/mL carbenicillin and 25 μg/mL rifampicin. All cultures were incubated at 28°C for 2 days, after which period they were pelleted at 2800g for 15 min, re-suspended in MMAi medium (5 g/L Murashige and Skoog basal salts, 20 g/L sucrose, 10 mM MES, and […]) at an optical cell density (A600) of 2.0, and further incubated for 2–4 h at room temperature. Agroinfiltrations were performed by mixing agrobacteria containing pMOG800:Cf-4 with agrobacteria containing pICH47742_WT-CfAvr4 or pICH47742:CfAvr4-mutants at three different ratios of optical cell densities, i.e. A6000.5:A6001.0, A6000.5:A6000.5, and A6000.5:A6000.25 of. The mixture of agrobacteria was infiltrated into the leaves of N. benthamiana plants using a 1 mL syringe and the induction of an HR in the infiltrated leaf sectors was evaluated at 5 days post-infiltrations. Control infiltrations were made using only the pMOG800:Cf-4 transformed agrobacteria and the agrobacteria containing pICH47742:CfAvr4 or the mutants thereof without mixing the two cultures, at cell densities of A6000.25, A6000.5, and A6001.0.

Molecule	Cf-4-mediated HR after protein infiltration (Cf-4 immune receptor; 5 μg/ml)	Cf-4-mediated HR after protein infiltration (Cf-4 immune receptor; 10 μg/ml)	Cf-4-mediated HR after protein infiltration (Cf-4 immune receptor; both 5 μg/ml and 10 μg/ml)	Stability (Subtilisin assay) (subtilisin)	susceptibility to proteolytic degradation by subtilisin (subtilisin)	increase in the Kd relative to WT-CfAvr4 [1]	morphology of hyphae after chitinase treatment [2]	protection of fungal hyphae against chitinases, fungal growth [2]	HR on transient co-expression with Cf-4 (Cf-4)	effect of the mutation on binding to (GlcNAc)6 ([1]; compared with WT-CfAvr4)
Q69N (protein, left off: 6x His (two), N-terminal, state not stated) KAPKTQPYNPCKPQEVIDTKCMGPKDCLYPNPDSCTTYINCVPLDEVGNAKPVVKPCPKGLQWNDNVGKKWCDYPNLSTCPVKTPQ	weak HR response	elicited an HR	only partially trigger an HR	PU	vulnerable to proteolytic degradation; also recorded: decreased intensity of this band	~ 20 fold	signs of osmotic injuries such as swollen segments and coagulated cytoplasm; also recorded: signs of osmotic injuries, such as swollen segments and coagulated cytoplasm	enable fungal growth to levels comparable to those of the WT-CfAvr4	strong and similar in intensity HR	–
K84A (protein, left off: 6x His (two), N-terminal, state not stated) KAPKTQPYNPCKPQEVIDTKCMGPKDCLYPNPDSCTTYIQCVPLDEVGNAKPVVAPCPKGLQWNDNVGKKWCDYPNLSTCPVKTPQ	–	–	strong and equal in intensity HR; also recorded: full HR; also recorded: strong and equally in intensity necrosis	S	as resilient to proteolysis as the WT-CfAvr4	~ 20 fold	signs of osmotic injuries such as swollen segments and coagulated cytoplasm; also recorded: signs of osmotic injuries, such as swollen segments and coagulated cytoplasm	enable fungal growth to levels comparable to those of the WT-CfAvr4	full HR; also recorded: strong and similar in intensity HR	–
W100A (protein, left off: 6x His (two), N-terminal, state not stated) KAPKTQPYNPCKPQEVIDTKCMGPKDCLYPNPDSCTTYIQCVPLDEVGNAKPVVKPCPKGLQWNDNVGKKACDYPNLSTCPVKTPQ	–	–	strong and equal in intensity HR; also recorded: full HR; also recorded: strong and equally in intensity necrosis	S	as resilient to proteolysis as the WT-CfAvr4	–	–	essentially failed to protect the fungal hyphae against chitinases; also recorded: fail to protect the fungal hyphae	full HR; also recorded: strong and similar in intensity HR	abolished all detectable binding
